According to IntAct's records for PubMed 24036454:

B1: Protein GLUTAMINE DUMPER 1 (Arabidopsis thaliana (Mouse-ear cress)), O81775 (parent)
chain: MRPLSVQSKFEDVATSTSVNHHGVTPQSPWHSPVPYLFGGLAAMLGLIAFALLILACSYWRLSSSGEEDGQNVDEEKESRSGDKAANGAYEEKFLVIMAGEDLPRYLATPAMKKCTCGGHEGKMVISQEESVAKEEEKMREGEEEKVKDTGETTTTSH
partner: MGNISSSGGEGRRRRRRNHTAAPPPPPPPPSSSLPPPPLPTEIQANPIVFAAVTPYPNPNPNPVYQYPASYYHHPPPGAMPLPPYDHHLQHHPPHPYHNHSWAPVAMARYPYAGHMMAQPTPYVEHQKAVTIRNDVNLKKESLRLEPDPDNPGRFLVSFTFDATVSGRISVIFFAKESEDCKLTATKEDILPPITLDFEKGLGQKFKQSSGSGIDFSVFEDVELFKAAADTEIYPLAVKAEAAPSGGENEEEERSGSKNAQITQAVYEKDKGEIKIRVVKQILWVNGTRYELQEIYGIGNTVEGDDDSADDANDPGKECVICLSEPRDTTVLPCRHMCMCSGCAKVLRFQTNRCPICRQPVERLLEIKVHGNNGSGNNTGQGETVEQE
B2: Protein GLUTAMINE DUMPER 1 (Arabidopsis thaliana (Mouse-ear cress)), O81775 (parent)
chain: B1 chain
partner: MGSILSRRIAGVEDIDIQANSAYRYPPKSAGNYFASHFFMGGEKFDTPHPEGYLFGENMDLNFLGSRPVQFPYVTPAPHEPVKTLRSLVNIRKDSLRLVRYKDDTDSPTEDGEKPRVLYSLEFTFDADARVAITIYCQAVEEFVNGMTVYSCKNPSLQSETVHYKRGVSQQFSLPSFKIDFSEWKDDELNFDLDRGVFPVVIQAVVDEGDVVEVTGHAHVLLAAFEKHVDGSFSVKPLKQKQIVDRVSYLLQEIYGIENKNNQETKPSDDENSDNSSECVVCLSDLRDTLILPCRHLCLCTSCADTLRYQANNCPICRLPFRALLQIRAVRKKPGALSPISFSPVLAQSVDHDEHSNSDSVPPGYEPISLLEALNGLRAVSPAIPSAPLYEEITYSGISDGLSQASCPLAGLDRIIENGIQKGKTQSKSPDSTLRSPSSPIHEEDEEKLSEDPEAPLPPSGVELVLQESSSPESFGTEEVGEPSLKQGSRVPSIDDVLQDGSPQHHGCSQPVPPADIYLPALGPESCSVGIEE

Variants of: B1
Settings: with lofg2_arath LOG2, Q9S752

effect of a mutation on the interaction | Variant
disrupting interaction | V96F;I97F;M98F;A99F;G100F

Variants of: B1
Settings: with lofg2_arath LOG2, Q9S752
Remark: another data set of the same source

effect of a mutation on the interaction | Variant
disrupting interaction | G100R

Variants of: B2
Settings: with mgrn1_rat Mgrn1, Q5XIQ4

effect of a mutation on the interaction | Variant
disrupting interaction | G100R
